Data on four molecules can be found in patent publication US9284543B2, “Neutral active soluble truncated PH20 polypeptides and uses thereof” (Halozyme, Inc., priority 2008, dated 2016).

Series [1] concerns CHO-S cells. Briefly: PI-PLC treatment of expressing cells, Western blot of media and cells. The class given is cell-based, Chinese Hamster. Conditions: cells incubated with PI-PLC for 2 hours. The method in brief: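 CHO-S cells transiently expressing rHuPH20 or C-terminal truncation mutants were treated with PI-PLC (0.5 units/well, or 3.0 units/dish in serum/detergent-free medium) for 2 h at 37 °C after 48–72 h expression. Untreated and treated media and cell extracts were analysed separately by Western blot for PH20.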

Series [2] has as its system CHO-S cells. The series is described as follows: Western blot analysis of PH20 expression in media and cells after transient expression. Conditions: media versus cells. The series is classed as cell-based, Chinese Hamster. The method in brief:
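PH20 expression and solubility were judged by anti-PH20 Western blot of non-reduced media and cell fractions, with expression shown by a ~66 kDa band. Samples came from CHO-S cells transiently transfected (GeneJuice) with mutant PH20-HZ24 DNA and cultured 48-72 h. GPI-anchored mutants were cleaved with PI-PLC to release soluble protein.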

Series [3] can be described thus: Microtiter hyaluronidase activity assay with biotinylated-hyaluronic acid. The class given is biochemical. Particulars: 72 hour post transfection supernatant.
Series [4] in a line: Triton X-114 partition assay. Conditions: partition into aqueous phase of Triton X-114 at 37° C. The series is classed as physicochemical. The procedure:
Solubility of a hyaluronidase can be determined by any method known to one of the skill in the art. One method for determining solubility is by detergent partitioning. […] For example, the solubility of the PH20 polypeptides described herein is assessed as described in Example 4. Membrane-anchored hyaluronidases, such as lipid-anchored hyaluronidases, including GPI-anchored hyaluronidases, will partition into the detergent-rich phase, but will partition into the detergent-poor or aqueous phase following treatment with Phospholipase C. Phospholipase C is an enzyme that cleaves the […] found in GPI-anchored proteins. Treatment with PLC will cause release of GPI-linked proteins from the outer cell membrane.
The samples were heated to 37° C. for 3 minutes to induce phase separation and centrifuged for 3 min at 4000 g at room temperature. Aqueous and detergent phases were removed for SDS-PAGE analysis and Western blotting. Rabbit anti-PH20 IgG (0.5 μg/mL) was used as the primary antibody and HRP-conjugated goat anti-Rabbit IgG (0.1 ng/mL, Cat#DC03L, EMD) was used as the secondary antibody. Full length human PH20, which partitions strongly into the detergent phase, was used as a control.

B1: SPAM1-FIVS: C-terminally truncated human PH20, precursor 497 aa (SEQ ID NO:8), mature 462 aa (SEQ ID NO:60) (protein, listed as Homo sapiens)
chain 1: MGVLKFKHIFFRSFVKSSGVSQIVFTFLLIPCCLTLNFRAPPVIPNVPFLWAWNAPSEFCLGKFDEPLDMSLFSFIGSPRINATGQGVTIFYVDRLGYYPYIDSITGVTVNGGIPQKISLQDHLDKAKKDITFYMPVDNLGMAVIDWEEWRPTWARNWKPKDVYKNRSIELVQQQNVQLSLTEATEKAKQEFEKAGKDFLVETIKLGKLLRPNHLWGYYLFPDCYNHHYKKPGYNGSCFNVEIKRNDDLSWLWNESTALYPSIYLNTQQSPVAATLYVRNRVREAIRVSKIPDAKSPLPVFAYTRIVFTDQVLKFLSQDELVYTFGETVALGASGIVIWGTLSIMRSMKSCLLLDNYMETILNPYIINVTLAAKMCSQVLCQEQGVCIRKNWNSSDYLHLNPDNFAIQLEKGGKFTVRGKPTLEDLEQFSEKFYCSCYSTLSCKEKADVKDTDAVDVCIADGVCIDAFLKPPMETEEPQIFYNASPSTLSATMFIVS
chain 2: LNFRAPPVIPNVPFLWAWNAPSEFCLGKFDEPLDMSLFSFIGSPRINATGQGVTIFYVDRLGYYPYIDSITGVTVNGGIPQKISLQDHLDKAKKDITFYMPVDNLGMAVIDWEEWRPTWARNWKPKDVYKNRSIELVQQQNVQLSLTEATEKAKQEFEKAGKDFLVETIKLGKLLRPNHLWGYYLFPDCYNHHYKKPGYNGSCFNVEIKRNDDLSWLWNESTALYPSIYLNTQQSPVAATLYVRNRVREAIRVSKIPDAKSPLPVFAYTRIVFTDQVLKFLSQDELVYTFGETVALGASGIVIWGTLSIMRSMKSCLLLDNYMETILNPYIINVTLAAKMCSQVLCQEQGVCIRKNWNSSDYLHLNPDNFAIQLEKGGKFTVRGKPTLEDLEQFSEKFYCSCYSTLSCKEKADVKDTDAVDVCIADGVCIDAFLKPPMETEEPQIFYNASPSTLSATMFIVS
modifications: HuPH20 precursor 1-497; esHuPH20 36-497
On to B1, for which the “Expressed in Media Following Addition of PI-PLC” value (from here on “Expressed … of PI-PLC”) in the series on CHO-S cells [1] is “Initially in media”. Moreover, the “Expressed in Media” value with CHO-S cells [2] is given as “YES”. Besides, the “pH 5.5 Activity” value in series [3] (Table 6) is recorded as 0.216 Units/ml; in series [3] (Table 6A), 0.162 Units/ml. Moreover, the “pH 7.4 Activity” value in series [3] (Table 6) is on record as 0.1755 Units/ml; in series [3] (Table 6A), 0.365 Units/ml. Further, in series [4], the Soluble result was “YES”.

B2: SPAM1-TMFI: C-terminally truncated human PH20, precursor 495 aa (SEQ ID NO:9), mature 460 aa (SEQ ID NO:61) (protein, listed as Homo sapiens)
chain 1: MGVLKFKHIFFRSFVKSSGVSQIVFTFLLIPCCLTLNFRAPPVIPNVPFLWAWNAPSEFCLGKFDEPLDMSLFSFIGSPRINATGQGVTIFYVDRLGYYPYIDSITGVTVNGGIPQKISLQDHLDKAKKDITFYMPVDNLGMAVIDWEEWRPTWARNWKPKDVYKNRSIELVQQQNVQLSLTEATEKAKQEFEKAGKDFLVETIKLGKLLRPNHLWGYYLFPDCYNHHYKKPGYNGSCFNVEIKRNDDLSWLWNESTALYPSIYLNTQQSPVAATLYVRNRVREAIRVSKIPDAKSPLPVFAYTRIVFTDQVLKFLSQDELVYTFGETVALGASGIVIWGTLSIMRSMKSCLLLDNYMETILNPYIINVTLAAKMCSQVLCQEQGVCIRKNWNSSDYLHLNPDNFAIQLEKGGKFTVRGKPTLEDLEQFSEKFYCSCYSTLSCKEKADVKDTDAVDVCIADGVCIDAFLKPPMETEEPQIFYNASPSTLSATMFI
chain 2: LNFRAPPVIPNVPFLWAWNAPSEFCLGKFDEPLDMSLFSFIGSPRINATGQGVTIFYVDRLGYYPYIDSITGVTVNGGIPQKISLQDHLDKAKKDITFYMPVDNLGMAVIDWEEWRPTWARNWKPKDVYKNRSIELVQQQNVQLSLTEATEKAKQEFEKAGKDFLVETIKLGKLLRPNHLWGYYLFPDCYNHHYKKPGYNGSCFNVEIKRNDDLSWLWNESTALYPSIYLNTQQSPVAATLYVRNRVREAIRVSKIPDAKSPLPVFAYTRIVFTDQVLKFLSQDELVYTFGETVALGASGIVIWGTLSIMRSMKSCLLLDNYMETILNPYIINVTLAAKMCSQVLCQEQGVCIRKNWNSSDYLHLNPDNFAIQLEKGGKFTVRGKPTLEDLEQFSEKFYCSCYSTLSCKEKADVKDTDAVDVCIADGVCIDAFLKPPMETEEPQIFYNASPSTLSATMFI
modifications: HuPH20 precursor 1-495; esHuPH20 36-495
As for B2, in the series on CHO-S cells [1], the “Expressed … of PI-PLC” value is given as “Initially in media”. Further, the “Expressed in Media” value in the series with CHO-S cells [2] is “YES”. In series [3] (Table 6), the “pH 5.5 Activity” value came to 0.612 Units/ml and the “pH 7.4 Activity” value is on record as 0.45 Units/ml. For the same molecule, in series [3] (Table 6A), the “pH 5.5 Activity” value stood at 0.770 Units/ml and the “pH 7.4 Activity” value is reported as 0.689 Units/ml. In addition, the Soluble entry in series [4] is “YES”.

B3: SPAM1-TLSA: C-terminally truncated human PH20, precursor 491 aa (SEQ ID NO:11), mature 456 aa (SEQ ID NO:63) (protein, listed as Homo sapiens)
chain 1: MGVLKFKHIFFRSFVKSSGVSQIVFTFLLIPCCLTLNFRAPPVIPNVPFLWAWNAPSEFCLGKFDEPLDMSLFSFIGSPRINATGQGVTIFYVDRLGYYPYIDSITGVTVNGGIPQKISLQDHLDKAKKDITFYMPVDNLGMAVIDWEEWRPTWARNWKPKDVYKNRSIELVQQQNVQLSLTEATEKAKQEFEKAGKDFLVETIKLGKLLRPNHLWGYYLFPDCYNHHYKKPGYNGSCFNVEIKRNDDLSWLWNESTALYPSIYLNTQQSPVAATLYVRNRVREAIRVSKIPDAKSPLPVFAYTRIVFTDQVLKFLSQDELVYTFGETVALGASGIVIWGTLSIMRSMKSCLLLDNYMETILNPYIINVTLAAKMCSQVLCQEQGVCIRKNWNSSDYLHLNPDNFAIQLEKGGKFTVRGKPTLEDLEQFSEKFYCSCYSTLSCKEKADVKDTDAVDVCIADGVCIDAFLKPPMETEEPQIFYNASPSTLSA
chain 2: LNFRAPPVIPNVPFLWAWNAPSEFCLGKFDEPLDMSLFSFIGSPRINATGQGVTIFYVDRLGYYPYIDSITGVTVNGGIPQKISLQDHLDKAKKDITFYMPVDNLGMAVIDWEEWRPTWARNWKPKDVYKNRSIELVQQQNVQLSLTEATEKAKQEFEKAGKDFLVETIKLGKLLRPNHLWGYYLFPDCYNHHYKKPGYNGSCFNVEIKRNDDLSWLWNESTALYPSIYLNTQQSPVAATLYVRNRVREAIRVSKIPDAKSPLPVFAYTRIVFTDQVLKFLSQDELVYTFGETVALGASGIVIWGTLSIMRSMKSCLLLDNYMETILNPYIINVTLAAKMCSQVLCQEQGVCIRKNWNSSDYLHLNPDNFAIQLEKGGKFTVRGKPTLEDLEQFSEKFYCSCYSTLSCKEKADVKDTDAVDVCIADGVCIDAFLKPPMETEEPQIFYNASPSTLSA
modifications: HuPH20 precursor 1-491; esHuPH20 36-491
Turning to B3, in the series on CHO-S cells [1], the “Expressed … of PI-PLC” value was “Initially in media”. Also, the “Expressed in Media” value in the series with CHO-S cells [2] is “YES”. Also, the “pH 5.5 Activity” value in series [3] (Table 6) was 0.5625 Units/ml; in series [3] (Table 6A), 0.729 Units/ml. In addition, the “pH 7.4 Activity” value in series [3] (Table 6) is 0.3645 Units/ml; in series [3] (Table 6A), 0.851 Units/ml. Moreover, the Soluble result in series [4] is reported as “YES”.

B4: SPAM1-SATM: C-terminally truncated human PH20, precursor 493 aa (SEQ ID NO:10), mature 458 aa (SEQ ID NO:62) (protein, listed as Homo sapiens)
chain 1: MGVLKFKHIFFRSFVKSSGVSQIVFTFLLIPCCLTLNFRAPPVIPNVPFLWAWNAPSEFCLGKFDEPLDMSLFSFIGSPRINATGQGVTIFYVDRLGYYPYIDSITGVTVNGGIPQKISLQDHLDKAKKDITFYMPVDNLGMAVIDWEEWRPTWARNWKPKDVYKNRSIELVQQQNVQLSLTEATEKAKQEFEKAGKDFLVETIKLGKLLRPNHLWGYYLFPDCYNHHYKKPGYNGSCFNVEIKRNDDLSWLWNESTALYPSIYLNTQQSPVAATLYVRNRVREAIRVSKIPDAKSPLPVFAYTRIVFTDQVLKFLSQDELVYTFGETVALGASGIVIWGTLSIMRSMKSCLLLDNYMETILNPYIINVTLAAKMCSQVLCQEQGVCIRKNWNSSDYLHLNPDNFAIQLEKGGKFTVRGKPTLEDLEQFSEKFYCSCYSTLSCKEKADVKDTDAVDVCIADGVCIDAFLKPPMETEEPQIFYNASPSTLSATM
chain 2: LNFRAPPVIPNVPFLWAWNAPSEFCLGKFDEPLDMSLFSFIGSPRINATGQGVTIFYVDRLGYYPYIDSITGVTVNGGIPQKISLQDHLDKAKKDITFYMPVDNLGMAVIDWEEWRPTWARNWKPKDVYKNRSIELVQQQNVQLSLTEATEKAKQEFEKAGKDFLVETIKLGKLLRPNHLWGYYLFPDCYNHHYKKPGYNGSCFNVEIKRNDDLSWLWNESTALYPSIYLNTQQSPVAATLYVRNRVREAIRVSKIPDAKSPLPVFAYTRIVFTDQVLKFLSQDELVYTFGETVALGASGIVIWGTLSIMRSMKSCLLLDNYMETILNPYIINVTLAAKMCSQVLCQEQGVCIRKNWNSSDYLHLNPDNFAIQLEKGGKFTVRGKPTLEDLEQFSEKFYCSCYSTLSCKEKADVKDTDAVDVCIADGVCIDAFLKPPMETEEPQIFYNASPSTLSATM
modifications: HuPH20 precursor 1-493; esHuPH20 36-493
As for B4, in the series on CHO-S cells [1], the “Expressed … of PI-PLC” value is “Initially in media”. Moreover, the “Expressed in Media” value with CHO-S cells [2] was “YES”. Besides, in series [3] (Table 6), the “pH 5.5 Activity” value is 0.7335 Units/ml and the “pH 7.4 Activity” value worked out at 0.5715 Units/ml. For the same molecule, in series [3] (Table 6A), the “pH 5.5 Activity” value worked out at 0.851 Units/ml and the “pH 7.4 Activity” value came out at 0.689 Units/ml. For the same molecule, in series [4], the Soluble result is “YES”.
